This is an account of results in patent publication US20220411483A1 (Chugai, published 2022).

Substitutions are numbered along the chain they refer to.

B1: IL6R-BP196/IL6R-L (antibody, human IgG1, kappa, name in EU numbering)
heavy: QVQLQESGPGLVKPSETLSLTCAVSGHSISHDHAWSWVRQPPGEGLEWIGFISYSGITNYNPSLQGRVTISRDNSKNTLYLQMNSLRAEDTAVYYCARSLARTTAMDYWGEGTLVTVSSASTKGPSVFPLAPSSKSTSGGTAALGCLVKDYFPEPVTVSWNSGALTSGVHTFPAVLQSSGLYSLSSVVTVPSSSLGTQTYICNVNHKPSNTKVDKKVEPKSCDKTHTCPPCPAPEYLGGDSVFLFPPKPKDTLMISRTPEVTCVVVDVSDEDGEVKFNWYVDGVEVHNAKTKPREEQYNSTYRVVSVLTVLHQDWLNGKEYKCKVSNAALPKPIEKTISKAKGQPREPQVYTLPPSRDELTKNQVSLTCLVKGFYPSDIAVEWESNGQPENNYKTTPPVLDSDGSFFLYSKLTVDKSRWQQGNVFSCSVMHEALHNHYTQESLSLSP
light: not shown
notes: IgG1; alterations on IL6R-B3, EU numbering
B2: IL6R-BP132/IL6R-L (antibody, human IgG1, kappa, name in EU numbering)
heavy: B1 heavy with E235D, Y236L, D270H, G273P
light: not shown
notes: as for B1
B3: IL6R-BP208/IL6R-L (antibody, human IgG1, kappa, name in EU numbering)
heavy: B1 heavy with E235D, Y236L, G239D, A328K, K332R
light: not shown
notes: as for B1
B4: IL6R-BP192/IL6R-L (antibody, human IgG1, kappa, name in EU numbering)
heavy: B1 heavy with E235D, Y236L, Y298D, A328K
light: not shown
notes: as for B1
B5: IL6R-BP211/IL6R-L (antibody, human IgG1, kappa, name in EU numbering)
heavy: B1 heavy with E235D, Y236L, K332R
light: not shown
notes: as for B1
B6: IL6R-BP246/IL6R-L (antibody, human IgG1, kappa, name in EU numbering)
heavy: B1 heavy with E235D, Y236L, G239D, S269Q, Y298D, K332R
light: not shown
notes: as for B1
B7: IL6R-BP202/IL6R-L (antibody, human IgG1, kappa, name in EU numbering)
heavy: B1 heavy with Y236L, G239D, D270H, K332R
light: not shown
notes: as for B1
B8: IL6R-BP182/IL6R-L (antibody, human IgG1, kappa, name in EU numbering)
heavy: B1 heavy with E235D, Y236L, D270H, Y298D, A328K
light: not shown
notes: as for B1
B9: IL6R-BP220/IL6R-L (antibody, human IgG1, kappa, name in EU numbering)
heavy: B1 heavy with E235D, Y236L, G239D, Y298D, A328K
light: not shown
notes: as for B1
B10: IL6R-BP189/IL6R-L (antibody, human IgG1, kappa, name in EU numbering)
heavy: B1 heavy with Y236L, G239D
light: not shown
notes: as for B1
B11: IL6R-2B261/IL6R-L (antibody, human IgG1, kappa, name in EU numbering)
heavy: B1 heavy with E235D, Y236L, D270H, G273P, Y298D, A328K, K332A
light: not shown
notes: as for B1
B12: IL6R-BP084/IL6R-L (antibody, human IgG1, kappa, name in EU numbering)
heavy: B1 heavy with Y236L, D270H, G273P, V325M, A328K
light: not shown
notes: as for B1
B13: IL6R-BP209/IL6R-L (antibody, human IgG1, kappa, name in EU numbering)
heavy: B1 heavy with Y236L, G239D, K332R
light: not shown
notes: as for B1
B14: IL6R-BP180/IL6R-L (antibody, human IgG1, kappa, name in EU numbering)
heavy: B1 heavy with Y236L, G239D, D270H, A328K
light: not shown
notes: as for B1
B15: IL6R-BP243/IL6R-L (antibody, human IgG1, kappa, name in EU numbering)
heavy: B1 heavy with E235D, G239D, A328K, K332R
light: not shown
notes: as for B1
B16: IL6R-BP233/IL6R-L (antibody, human IgG1, kappa, name in EU numbering)
heavy: B1 heavy with G239D, D270H, A328K
light: not shown
notes: as for B1
B17: IL6R-BP151/IL6R-L (antibody, human IgG1, kappa, name in EU numbering)
heavy: B1 heavy with E235D, G239D, D270H, G273P, K332R
light: not shown
notes: as for B1
B18: IL6R-BP239/IL6R-L (antibody, human IgG1, kappa, name in EU numbering)
heavy: B1 heavy with E235D, G239D, S269Q, Y298D, K332R
light: not shown
notes: as for B1
B19: IL6R-BP228/IL6R-L (antibody, human IgG1, kappa, name in EU numbering)
heavy: B1 heavy with G239D, S269Q, A328D, K332R
light: not shown
notes: as for B1
B20: IL6R-BP206/IL6R-L (antibody, human IgG1, kappa, name in EU numbering)
heavy: B1 heavy with E235D, Y236L, D270H, A328K, K332R
light: not shown
notes: as for B1
B21: IL6R-BP130/IL6R-L (antibody, human IgG1, kappa, name in EU numbering)
heavy: B1 heavy with E235D, Y236L, D270H, G273P, V325M, A328K
light: not shown
notes: as for B1
B22: IL6R-BP237/IL6R-L (antibody, human IgG1, kappa, name in EU numbering)
heavy: B1 heavy with E235D, G239D, S269Q, Y298D
light: not shown
notes: as for B1

In the first test the target is T1, FcγRIIa R type extracellular domain with C-terminal His tag (human, UniProt P12318 34-217).
T1 construct: extracellular domain; also called FcgRIIaR
T1 sequence (looked up): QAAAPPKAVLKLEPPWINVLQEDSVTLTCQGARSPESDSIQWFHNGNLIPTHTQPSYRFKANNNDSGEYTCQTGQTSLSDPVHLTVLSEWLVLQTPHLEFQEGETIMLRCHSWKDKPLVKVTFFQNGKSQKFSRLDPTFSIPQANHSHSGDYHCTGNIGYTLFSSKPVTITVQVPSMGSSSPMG
Put plainly: SPR (Biacore), FcgR as analyte. A general note: In SPR one partner is held on a chip, and binding of the other changes the refractive index at the surface.
As for B1, the Kd turned out to be 3000 nM.

Consider B2, for which binding was characterised by a dissociation constant (Kd) of 8000 nM.

The molecule B3 had a Kd of 850 nM. Compared with the last molecule, the Kd is about 9.4-fold lower.

In turn, B4 returned a dissociation constant (Kd) of 2600 nM.

B5 had a dissociation constant (Kd) of 4100 nM. Against the preceding molecule, the Kd is about 1.6-fold higher.

A further test deals with T2, FcγRIa extracellular domain with C-terminal His tag (human, UniProt P12314 16-292).
T2 construct: also called FcgRIa
T2 sequence (P12314 16-292): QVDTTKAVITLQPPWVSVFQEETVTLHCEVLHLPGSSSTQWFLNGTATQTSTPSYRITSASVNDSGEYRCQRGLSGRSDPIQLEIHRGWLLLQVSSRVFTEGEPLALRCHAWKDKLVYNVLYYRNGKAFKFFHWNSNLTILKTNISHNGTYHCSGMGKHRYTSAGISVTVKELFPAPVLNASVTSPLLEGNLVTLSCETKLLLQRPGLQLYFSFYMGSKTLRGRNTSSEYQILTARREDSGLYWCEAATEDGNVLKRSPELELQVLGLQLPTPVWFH
The test can be described thus: SPR (Biacore), FcgR as analyte.
Consider B6, for which the Kd came out at 8 nM.

B7 showed a Kd of 95 nM.

Turning to B8, binding was characterised by a dissociation constant (Kd) of 10 nM. This Kd lies about 9.5-fold lower than the previous one.

In turn, B9 registered a Kd of 20 nM.

With B10, the dissociation constant Kd came out at 42 nM.

Consider B11, for which the Kd was 9 nM.

As to B12, binding was put at a Kd of 7 nM.

B13 displayed a Kd of 39 nM.

The molecule B14 displayed a Kd of 98 nM.

B4 came in with a Kd of 6.6 nM.

The molecule B15 displayed a Kd of 3 nM.

As to B16, the Kd amounted to 70 nM.

The target of the next test is T3, FcγRIIb extracellular domain with C-terminal His tag (human, UniProt P31994 43-217).
T3 construct: extracellular domain; also called FcgRIIb
T3 sequence (looked up): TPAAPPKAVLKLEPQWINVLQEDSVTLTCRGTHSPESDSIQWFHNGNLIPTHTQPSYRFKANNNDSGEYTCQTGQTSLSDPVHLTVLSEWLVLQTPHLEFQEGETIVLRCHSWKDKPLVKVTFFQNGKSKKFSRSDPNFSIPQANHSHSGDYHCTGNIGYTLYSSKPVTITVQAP
The test can be described thus: SPR (Biacore), FcgR as analyte.
The molecule B17 gave a Kd of 40 nM.

For B18, binding was characterised by a dissociation constant (Kd) of 60 nM.

In turn, B19 came in with a Kd of 40 nM.

For the molecule B20, binding was put at a Kd of 200 nM. This Kd lies about 5-fold higher than the previous one.

With B11, the Kd was determined as 1000 nM.

B12 yielded a Kd of 500 nM.

Molecule B13 yielded a dissociation constant (Kd) of 51 nM.

Turning to B21, the Kd stood at 300 nM.

B22: the Kd turned out to be 100 nM.

In general, Kd refers to a measure of binding affinity in units of concentration. A high value points to a looser complex.
